{"source": "paper PMC11148119", "target": "T1, Full-length rat TRPV2 with a C-terminal 1D4 tag, reconstituted into MSP2N2 nanodiscs (rat), Q9WUD2", "T1 chain": "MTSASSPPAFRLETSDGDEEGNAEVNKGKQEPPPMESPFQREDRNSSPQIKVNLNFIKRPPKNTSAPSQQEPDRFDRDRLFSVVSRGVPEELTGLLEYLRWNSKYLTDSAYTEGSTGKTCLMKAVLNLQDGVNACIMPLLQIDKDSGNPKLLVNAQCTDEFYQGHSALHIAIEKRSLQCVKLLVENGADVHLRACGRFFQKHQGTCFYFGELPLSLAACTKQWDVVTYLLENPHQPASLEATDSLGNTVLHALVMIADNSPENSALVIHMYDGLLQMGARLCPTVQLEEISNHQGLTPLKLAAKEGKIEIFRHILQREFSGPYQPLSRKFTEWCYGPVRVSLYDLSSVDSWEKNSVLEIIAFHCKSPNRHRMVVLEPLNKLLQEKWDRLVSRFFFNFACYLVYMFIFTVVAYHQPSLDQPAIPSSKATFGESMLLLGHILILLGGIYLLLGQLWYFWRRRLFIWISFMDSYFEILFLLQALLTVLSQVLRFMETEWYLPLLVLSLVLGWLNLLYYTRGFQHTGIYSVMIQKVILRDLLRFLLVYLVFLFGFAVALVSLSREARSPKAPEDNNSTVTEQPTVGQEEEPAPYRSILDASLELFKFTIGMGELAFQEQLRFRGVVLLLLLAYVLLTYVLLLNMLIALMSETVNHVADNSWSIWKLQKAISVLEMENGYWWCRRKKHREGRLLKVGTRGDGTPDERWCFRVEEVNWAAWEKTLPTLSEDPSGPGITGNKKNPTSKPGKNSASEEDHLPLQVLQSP", "assay": "cryo-EM structure; rTRPV2 in MSP2N2/soy polar lipid nanodiscs; apo dataset at pH 8 (states Apo1, Apo2, Apo3) and dataset with 30 mM sodium acetate at final pH 5.0 (TRPV2_HOAc); grids prepared at 4 °C; maps refined with C4 symmetry", "settings": "remark: other sources report otherwise", "data": [{"binder": "Full-length rat TRPV2 with a C-terminal 1D4 tag, reconstituted into MSP2N2 nanodiscs, Q9WUD2 1-761 (natural protein) MTSASSPPAFRLETSDGDEEGNAEVNKGKQEPPPMESPFQREDRNSSPQIKVNLNFIKRPPKNTSAPSQQEPDRFDRDRLFSVVSRGVPEELTGLLEYLRWNSKYLTDSAYTEGSTGKTCLMKAVLNLQDGVNACIMPLLQIDKDSGNPKLLVNAQCTDEFYQGHSALHIAIEKRSLQCVKLLVENGADVHLRACGRFFQKHQGTCFYFGELPLSLAACTKQWDVVTYLLENPHQPASLEATDSLGNTVLHALVMIADNSPENSALVIHMYDGLLQMGARLCPTVQLEEISNHQGLTPLKLAAKEGKIEIFRHILQREFSGPYQPLSRKFTEWCYGPVRVSLYDLSSVDSWEKNSVLEIIAFHCKSPNRHRMVVLEPLNKLLQEKWDRLVSRFFFNFACYLVYMFIFTVVAYHQPSLDQPAIPSSKATFGESMLLLGHILILLGGIYLLLGQLWYFWRRRLFIWISFMDSYFEILFLLQALLTVLSQVLRFMETEWYLPLLVLSLVLGWLNLLYYTRGFQHTGIYSVMIQKVILRDLLRFLLVYLVFLFGFAVALVSLSREARSPKAPEDNNSTVTEQPTVGQEEEPAPYRSILDASLELFKFTIGMGELAFQEQLRFRGVVLLLLLAYVLLTYVLLLNMLIALMSETVNHVADNSWSIWKLQKAISVLEMENGYWWCRRKKHREGRLLKVGTRGDGTPDERWCFRVEEVNWAAWEKTLPTLSEDPSGPGITGNKKNPTSKPGKNSASEEDHLPLQVLQSP", "values": [{"measurement": "stoichiometry N", "value": 4}]}]}
